Data: the RNAGym collection of RNA variant scans (doi:10.1073/pnas.2313332121)
Fewer inactive variants are shown than the library holds.

B1: TPR 5TU (parent)
chain: GGAUCUUCUCGAUCUAACAAAAAAGACAAAUCUGCCACAAAGCUUGAGAGCAUCUUCGGAUGCAGAGGCGGCAGCCUUCGGUGGCGCGAUAGCGCCAACGUUCUCAACUAUGACACGCAAAACGCGUGCUCCGUUGAAUGGAGUUUAUCAUG

Variants of: B1
Test: polymerase ribozyme fitness, log enrichment relative to wild type (log ratio); higher = more active; in vitro selection for triplet polymerase activity
Method in brief: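 Mutant libraries of each subunit of a heterodimeric triplet polymerase ribozyme were built by PCR and transcribed. Each library went through one round of in vitro selection in triplicate: annealing with biotinylated primer, partner subunit and triplets, frozen incubation at −7 °C, gel excision of extended constructs, streptavidin-bead capture and RT-PCR. Input and output libraries were Illumina-sequenced; only genotypes with ≥10 input reads and ≥1 read per output were kept. Fitness is log2(genotype enrichment/wild-type enrichment), using inverse-variance-weighted replicate averages.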

Variant | polymerase ribozyme fitness (log ratio)
GGAUCUUCUCGAUCUAACAAAAAAGACAAAUCUGCCACAAAGCUUGAGAGCAUCUUCGGAUGCAGAGGCGGCAGCCUUCGGAGGCGCGAUAGCGCCAACGUUCUCAACUAUGACACGCAAAACGCAUGCUCCGUUGAAUGGAGUUUAUCAUG [U82A G126A] | 1.28
GGAUCUUCUCGAUCUAACAAAAAAGACAAAUCUGCCACAAAGCUUGAGAGCAUCUUCGGAUGCAGAGGCGGCAGCCUUCGGCAGCGCGAUAGCGCCAACGUUUUCAACUAUGACACGCAAAACGCGUGCUCCGUUGAAUGGAGUUUAUCAUG [U82C G83A C103U] | -0.585
GGAUCUUCUCGAUCUAACAAAAAAGACAAAUCUGCCACAAAGCUUGAGAGCAUCUUCGGAUGCAGAGGCGGCAGCCUUCGGCGGCGCGAUAGCGUCAACGUUCUCAACUAUGACACGCAAAACGCGUGCUGCGUUGAAUGGCGUUUAUCAUG [U82C C95U C131G A142C] | ≤ -4.2
GGAUCUUCUCGAUCUAACAAAAAAGACAAAUCUGCCACAAAGCUUGAGAGCAUCUUCGGAUGCAGAGGCGGCAGCCUUCGGGGGCGCGAUAGCGCCAACGUUCUCAACUAUGACACGCAAGACGCGUGCUCCGUUGAAUGGAGUUUAUCAUG [U82G A121G] | -0.49
GGAUCUUCUCGAUCUAACAAAAAAGACAAAUCUGCCACAAAGCUUGAGAGCAUCUUCGGAUGCAGAGGCGGCAGCCUUCGGCGGCGCGAUAGCGCCAACGUUCUCAACUAUGACACGCAAAACGCGUGCUCCGUUGAAUGGAGUUUAUCAUG [U82C] | -0.0678
GGAUCUUCUCGAUCUAACAAAAAAGACAAAUCUGCCACAAAGCUUGAGAGCAUCUUCGGAUGCAGAGGCGGCAGCCUUCGGGGGCGCGAUAGCGCCAACGUUCUCAACUAUGACACGCAAAACGCGUGCUCCGUUGAAUGGAGUUUAUCAUG [U82G] | 0.17
GGAUCUUCUCGAUCUAACAAAAAAGACAAAUCUGCCACAAAGCUUGAGAGCAUCUUCGGAUGCAGAGGCGGCAGCCUUCGGAGGCGCGAUAGCGCCAACGUUCUCAACUAUGACACGCAAAACGCGUGAUCCGUUGAAUGGAGUUUAUCAUG [U82A C129A] | -2.19
GGAUCUUCUCGAUCUAACAAAAAAGACAAAUCUGCCACAAAGCUUGAGAGCAUCUUCGGAUGCAGAGGCGGCAGCCUUCGGCGGCGCGAUAGGGCCAACGUUCUCAACUAUGACAGGUAAAACGCGUGCUCCGUUGAAUAGAGUUUAUCCUG [U82C C93G C116G C118U G140A A150C] | ≤ -4.2
GGAUCUUCUCGAUCUAACAAAAAAGACAAAUCUGCCACAAAGCUUGAGAGCAUCUUCGGAUGCAGAGGCGGCAGCCUUCGGCGGCGCGAUAGCGCCAACGUUCUCAACUAUGACACGCAAAACGCGUGCUCCGUCGAAUGGAGUUCAUCAUG [U82C U135C U146C] | -2.14
GGAUCUUCUCGAUCUAACAAAAAAGACAAAUCUGCCACAAAGCUUGAGAGCAUCUUCGGAUGCAGAGGCGGCAGCCUUCGGCGGCGCGAUAGCGCCAACGUUCUCAACUAUGAUACGCAAAACGCGUGCUCCGUUGAAUGGAGUUUAUCAUG [U82C C114U] | -1.99
GGAUCUUCUCGAUCUAACAAAAAAGACAAAUCUGCCACAAAGCUUGAGAGCAUCUUCGGAUGCAGAGGCGGCAGCCUUCGGAGGCGCGAUAGCGCCAACGUUCUCAACUAUGACACGCAAAACGGGUGCUCCGUUGAAUGGAGUUUAUCAUG [U82A C125G] | -0.33
GGAUCUUCUCGAUCUAACAAAAAAGACAAAUCUGCCACAAAGCUUGAGAGCAUCUUCGGAUGCAGAGGCGGCAGCCUUCGGAGGCGCGAUAGCGCCAACGUUCUCAACUAUGACACGCAAAACGAGUGCUCCGUUGAAUGGAGUUUAUCAUG [U82A C125A] | -0.504
GGAUCUUCUCGAUCUAACAAAAAAGACAAAUCUGCCACAAAGCUUGAGAGCAUCUUCGGAUGCAGAGGCGGCAGCCUUCGGCGGCACGAUAGCGCCAACGUUCUCAACUAUGACACGCAAAACGCGUGCUCCGUUGAAUGGAGUUUAUCAUG [U82C G86A] | -2.06
GGAUCUUCUCGAUCUAACAAAAAAGACAAAUCUGCCACAAAGCUUGAGAGCAUCUUCGGAUGCAGAGGCGGCAGCCUUCGGAGGCACGAUAGCGCCAUCGUUCUCAACUAUGACACGCAAAACGCGUGCUCCGAUGAAUGGAGUUUAUCAUG [U82A G86A A98U U134A] | -3.68
GGAUCUUCUCGAUCUAACAAAAAAGACAAAUCUGCCACAAAGCUUGAGAGCAUCUUCGGAUGCAGAGGCGGCAGCCUUCGGGGGCGCGAUAGCGCCAACGUUCUCAACUGUGACACGCAAAACGGGUGCUCCGUUGUAUGGAGUUUAUCAUG [U82G A110G C125G A137U] | ≤ -4.2
GGAUCUUCUCGAUCUAACAAAAAAGACAAAUCUGCCACAAAGCUUGAGAGCAUCUUCGGAUGCAGAGGCGGCAGCCUUCGGGGGCGCGAUAGCGCCAGCGUUCUCAACUAUGACACACAAAUCGCGUGCUCCGUUGAAUGGAGUUUAUCAUG [U82G A98G G117A A122U] | 0.376
GGAUCUUCUCGAUCUAACAAAAAAGACAAAUCUGCCACAAAGCUUGAGAGCAUCUUCGGAUGCAGAGGCGGCAGCCUUCGGCGACGCGAUAGCGCCAUCGUUCUCAACUAUGACUCGCAAAACGCGUGCUCCGUUGAAUGAAGUUUAUCAUG [U82C G84A A98U A115U G141A] | -2.58
GGAUCUUCUCGAUCUAACAAAAAAGACAAAUCUGCCACAAAGCUUGAGAGCAUCUUCGGAUGCAGAGGCGGCAGCCUUCGGAGGCGCGAUAGCGCCAACGUGCUCAACUAUGACACGCAAAACGCGUGCUCCGUUGAAUGGAGGUUAUCAUG [U82A U102G U144G] | -1.48
GGAUCUUCUCGAUCUAACAAAAAAGACAAAUCUGCCACAAAGCUUGAGAGCAUCUUCGGAUGCAGAGGCGGCAGCCUUCGGCGGCGCGAUAGCACCAACGUUCUCAACUAUGACACGCAAAACGCGUGCUCCGUUGAAUGGAGUUUAUCAUG [U82C G94A] | -1.35

Variant | polymerase ribozyme fitness (log ratio)
GGAUCUUCUCGAUCUAACAAAAAAGACAAAUCUGCCACAAAGCUUGAGAGCAUCUUCGGAUGCAGAGGCGGCAGCCUUCGGGGGCGCGUUUGCGCCAUCCUUCUCAACUAUGACACGCAAAACGCGUGCUCCGUUGAAUGGAGUUUAUCAUG [U82G A89U A91U A98U G100C] | ≤ -4.2
GGAUCUUCUCGAUCUAACAAAAAAGACAAAUCUGCCACAAAGCUUGAGAGCAUCUUCGGAUGCAGAGGCGGCAGCCUUCGGGGGCGCGAUAGCGCCAACGUUCUCAACUAUGACACGCAAAACGCGUGCUCCGUUGCAUGGAGUUUAUCAUG [U82G A137C] | -2.98
GGAUCUUCUCGAUCUAACAAAAAAGACAAAUCUGCCACAAAGCUUGAGAGCAUCUUCGGAUGCAGAGGCGGCAGCCUUCGGAGGCGCGAUAGCGCCAACGUUCUCAACUAUGACACGCAAAACACGUGCUCCGUUGAAUGGAGUUUAUCAUG [U82A G124A] | 0.114
GGAUCUUCUCGAUCUAACAAAAAAGACAAAUCUGCCACAAAGCUUGAGAGCAUCUUCGGAUGCAGAGGCGGCAGCCUUCGGCGACGCGAUAGCGCCAACGUUCUCAACUAUGACACUCAAAACGCGUGCUCCGUUGAAUGGAGUUUAUCAUG [U82C G84A G117U] | -0.688
GGAUCUUCUCGAUCUAACAAAAAAGACAAAUCUGCCACAAAGCUUGAGAGCAUCUUCGGAUGCAGAGGCGGCAGCCUUCGGAGGCGCGAUAGCGCCAACGUUGUCAACUAUGUCACGCAAAACGCGUGCUCCGUUGCAUGGAGUUUAACAUG [U82A C103G A113U A137C U148A] | ≤ -4.2
GGAUCUUCUCGAUCUAACAAAAAAGACAAAUCUGCCACAAAGCUUGAGAGCAUCUUCGGAUGCAGAGGCGGCAGCCUUCGGCGGAGCGAUAGCGCCAACGUUCUCAACUAUGACACGCAAAACGCGUGCUCCGUUGAAUGGAGUCUAUCAUG [U82C C85A U145C] | 0.554
GGAUCUUCUCGAUCUAACAAAAAAGACAAAUCUGCCACAAAGCUUGAGAGCAUCUUCGGAUGCAGAGGCGGCAGCCUUCGGCGGCGCGAUAGCCCCAACGUUCUCAAAUGUGGCACGCAAAACGCGUGCUCCGUUGAAUUGAGUUUAUCAUG [U82C G94C C108A A110G A113G G140U] | ≤ -4.2
GGAUCUUCUCGAUCUAACAAAAAAGACAAAUCUGCCACAAAGCUUGAGAGCAUCUUCGGAUGCAGAGGCGGCAGCCUUCGGGGGCGCGAUAGCGCCAACGUUCUCAACUAUGGCACGCAAAACGUGUGCUCCGUUGAAUGGAGUUUAUCAUG [U82G A113G C125U] | -3.28
GGAUCUUCUCGAUCUAACAAAAAAGACAAAUCUGCCACAAAGCUUGAGAGCAUCUUCGGAUGCAGAGGCGGCAGCCUUCGGAGGCGCGAUAGCGCCAACGUUCUCAACUAUGACACGCAAAACGCGUGCUCCGUUGAAUGGAGUUAAUCAUG [U82A U146A] | -0.606
GGAUCUUCUCGAUCUAACAAAAAAGACAAAUCUGCCACAAAGCUUGAGAGCAUCUUCGGAUGCAGAGGCGGCAGCCUUCGGCGGCGCGAUAGCGCCAACGUUCUCAACUAUGACUCGCAAAACGCGUGCUCCGUUCAAUGGAGUUUAUCAUG [U82C A115U G136C] | -3.84
GGAUCUUCUCGAUCUAACAAAAAAGACAAAUCUGCCACAAAGCUUGAGAGCAUCUUCGGAUGCAGAGGCGGCAGCCUUCGGAGGCGCGAUAUCGCCAACGUUCUCAACUAUGACACGCAAAACGCGUGCUCCGUUGAAUGGAGUUUAUCAUG [U82A G92U] | -0.55
GGAUCUUCUCGAUCUAACAAAAAAGACAAAUCUGCCACAAAGCUUGAGAGCAUCUUCGGAUGCAGAGGCGGCAGCCUUCGGAGGCGCGAUACCGCCAACGUUCUCAACUAUGACACGCAAAACGCGUGCUCCGUUGAAUGGAGUUUAUCAUG [U82A G92C] | 0.508
GGAUCUUCUCGAUCUAACAAAAAAGACAAAUCUGCCACAAAGCUUGAGAGCAUCUUCGGAUGCAGAGGCGGCAGCCUUCGGAGGCGCGAUAGCGCCAACGUGCUCAACUAUGACACGCAAAACGCGUGCUCCGUUGAAUGGAGUUUAUCAUG [U82A U102G] | -2.54
GGAUCUUCUCGAUCUAACAAAAAAGACAAAUCUGCCACAAAGCUUGAGAGCAUCUUCGGAUGCAGAGGCGGCAGCCUUCGGAGGCGCGAUAGCGCCAACGUUCUCAACUAUGACACGCAAAACGCGCGCUCCGUUGAAUGGAGUUUAUCAUU [U82A U127C G152U] | -3.97
GGAUCUUCUCGAUCUAACAAAAAAGACAAAUCUGCCACAAAGCUUGAGAGCAUCUUCGGAUGCAGAGGCGGCAGCCUUCGGGGGAGCGAUAGCGUCAACGUUCUCAACUAUGACACGCAAAACGCGUGCUCCGUUGAAUGGAGUUAAUCUUG [U82G C85A C95U U146A A150U] | -1.37
GGAUCUUCUCGAUCUAACAAAAAAGACAAAUCUGCCACAAAGCUUGAGAGCAUCUUCGGAUGCAGAGGCGGCAGCCUUCGGCGGCGCGAUAGCUCCAGCGUUCUCACCUAUGACACGCAAAACGCGUGCUCCGUUGAAUGGAGUUUAUCAUG [U82C G94U A98G A107C] | ≤ -4.2
GGAUCUUCUCGAUCUAACAAAAAAGACAAAUCUGCCACAAAGCUUGAGAGCAUCUUCGGAUGCAGAGGCGGCAGCCUUCGGCGGUGCGAUAGCGCCAACGUUCUCAACUAUGAAACGCAAAACGCGUGCUCCGUUGAAUGGAGUUUAUCAUG [U82C C85U C114A] | -3.22
GGAUCUUCUCGAUCUAACAAAAAAGACAAAUCUGCCACAAAGCUUGAGAGCAUCUUCGGAUGCAGAGGCGGCAGCCUUCGGCGGCGCCAUAGCGCCAACGUUCUUAACUAUGACACGCAAAACGCGUGCUCCGUUGAAUGAAGUUUAUUAUG [U82C G88C C105U G141A C149U] | ≤ -4.2
GGAUCUUCUCGAUCUAACAAAAAAGACAAAUCUGCCACAAAGCUUGAGAGCAUCUUCGGAUGCAGAGGCGGCAGCCUUCGGCGGCGCGAUAGCGGCAACGUUCUCAACUAUGACACGCAAAACGCGUGCUCCGUUGAAUGGAGUUUAUCAUG [U82C C95G] | -2.63
